Data published in patent EP4524159A1, “ANTIBODY AND USE THEREOF” (Sichuan Huiyu Pharmaceutical Co., Ltd., priority 2022, dated 2023).
Positions count from the first letter of the chain named. Square brackets hold non-standard residues; d marks the D form. Peptide text beside a SMILES is read from it. * marks the point of attachment. Dolaproine = CO[C@@H]([C@@H]1CCCN1)[C@@H](C)C(=O)O; Dil = CC[C@H](C)[C@H](NC)[C@@H](CC(=O)O)OC; X1 = C[C@@H](N*)[C@@H](O)c1ccccc1; NMeV = CN[C@H](C(=O)O)C(C)C

T1: HuCDCP1-B (human) (UniProt Q9H5V8)
T1 sequence (looked up): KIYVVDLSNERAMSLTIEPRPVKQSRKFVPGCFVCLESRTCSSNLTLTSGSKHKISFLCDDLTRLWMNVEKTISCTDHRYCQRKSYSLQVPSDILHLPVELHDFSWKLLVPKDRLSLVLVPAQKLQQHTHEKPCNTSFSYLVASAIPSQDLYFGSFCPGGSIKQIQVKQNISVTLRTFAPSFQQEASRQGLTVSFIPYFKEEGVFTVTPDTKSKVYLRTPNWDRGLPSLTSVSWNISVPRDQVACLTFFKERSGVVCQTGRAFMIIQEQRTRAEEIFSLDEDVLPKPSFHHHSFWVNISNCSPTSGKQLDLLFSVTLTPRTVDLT

B1: SB4 (antibody, V domains shown)
VH: QVQLQQSGAELVRPGTSVKISCKASGYTFTNYWLGWVKQRPGHGLEWIGDNYPGDNYRNFNEKFKGKATLTTDASSSTAYLQLSSLISEDSAVYFCTRSGGSRYYTMDYWGQGTSVTVSS
VL: DIVMTQAAFSNPVTLGTSASISCRSSRSLLHNNGITYLYWYLQKPGQSPQLLIYQMSNLASGVPDRFHSSGSGTDFTLSISRVEAEDVGVYYCAQNLDLPYTFGGGTKLEIK
B2: SB7 (antibody, V domains shown)
VH: QVQLQQSGPELVSPGESVKISCKGSGYTFTDYAVHWVKQSHSKSLEWIGVKSVYYGITKYSQNFKDKATMTVDKSSSTAYMELARLTSEDSAIYYCARDSYGSSRGYFDYWGQGTTLTVSS
VL: DIKMTQSPSSIYVSPGERVTITCKASQDINSFLSWFQQKPGKSPKTLIYRANRLVDGVPSRFSGSGSGQDYSLTISSLEYEDMGIYYCLQYDEFPRTFGGGTKLEIK
B3: G10F6-MMAE (conjugate)
VH: EVKLVESGPGILQPSQTLSLTCSFSGFSLSTSGMGVSWVRQPSGKGLEWLAHIYWDDDKRYNPSLKGRLTISKDTPRNQVFLEITSVDTTDTATYYCARVPGNWDEDAMDYWGQGTTVTVSS
VL: DIQMTQSPLSLPVSLGDQASISCRSSQNIVHTNGNTYLEWYLQKVGQSPKLLIYKVSNRFSGVPDRFSGSGSGTDFTLKISRVEAEDLGVYYCFQGSHVPYTFGGGTKLEIK
B4: SB1 (antibody, V domains shown)
VH: QVQLQQSGPDLVRPGESVKISCKGSGYTFTDHAIHWVRQSHAKSLEWIGVISFSYDNTKYNQNFKGKATMTVDKSSNTAYMELARLTSEDSAIYYCARDCYGSNRGYFDYWGQGTTLTVSS
VL: DIRMTQSPSSMYASLGERVTITCKASQDINRFLSWFLQRPGKAPKTLIYRANNLVEGVPSRFSGSGSGQDYSLIISNLEYEDMGIYYCLQYDEFPRTFGGGTKLEIK
B5: 10D2-MMAE (conjugate)
VH: EVQLQQSGPELKKPGETVKISCKASGYTFTDYSMHWVKQAPGKGLKWMGWINTETGQPTYADDFKGRFAFSLETSASSAYLQINNLKNEDTATYFCTRTFYYDYVGDYWGQGTTVTVSS
VL: DIVMTQSHKFMSTSVGDRVSITCKASQDVSTAVAWYRQKPGQSPKLLIYWASTRHTGVPDRLTGSGSGTDFALTINSVQAEDLALYYCQQHSSTPYTFGGGTKLEIK
B6: SB5 (antibody, V domains shown)
VH: QVQLRESGPGLVAPSQSLSITCTVSGFSLTDFGVNWVRQPPGKGLEWLGIIWANGRIEYNSALKSRLSISKDNSRSQVFLKLNSLQTDDTARYYCARDHDYDVEAMDYWGQGTSVTVSA
VL: QIVLTQSPAIKSASPGEKVTMTCSASSSVIYMHWYQQKSGSSPKRWIYDTSKLASGVPVRFSGSGSGTSYSLTISTMEAEDAATYYCQQWSSYPPTFGGGTKVEIK
B7: 3C11-MMAE (conjugate)
VH: EVQLQQSGTVLARPGASVKMSCKASGYNFISYWLHWIKQRPGQGLEWIGGIYPGNTDTTYNQKFKGKAKVTAVTSATTAYMELSSLTNEDSAVYYCIRYDYDRGMDYWGQGTTVTVSS
VL: DIQMTQSPSSFSVSLGDRVTITCRASEDIYYRLAWYQQKPGNAPRLLISGATALETGVPSRFSGSGSGKDYTLSITSLQTEDVATYYCQHYWNIPWTFGGGTKLEIK
B8: 3B 12H5-MMAE (conjugate)
VH: EVQLQQSGTVLARPGASVKMSCKASGYSFTIYWVHWVKQRPGQGLEWIGAVYPGNDDTSYNQNFKGKAKLTAVTSATTAYMELSSLTIDDSAVYYCTRHTYDEVFDYWGQGTTVTVSS
VL: B7 VL with Q3V, F11L, R24K, A51G, A53N, T56A, V58I, T85I, I94T
B9: SB6 (antibody, V domains shown)
VH: QGQMQQSGAELVKPGASVKLSCKTSGFTFNSSYITWLKQKPGQSLEWIAWIFAGTGGTYYNEKFTDKAQLTVDTTSSTAYMQFSSLTTEDSAIYYCARHGLGYDYWGQGTTLTVSS
VL: SIVMTQTPKFLLVSAGDRVTITCKASQSVNTDVAWYQQKSGQSPKLLIYSASNRYTGVPDRFTGSGYGTDFTFTISTVQAEDLAVYFCQQDHSSPPWTFGGGTKLEIK
B10: 8E5-MMAE (conjugate)
VH: EVQLKESGPELKKPGETVKISCKASGYTLTDFSMHWLKQAPGKGLKWMGWINTETGAPTYADDFKGRFALSLDTSANTAYLQINNLKNEDTATYFCSRGRDYDPHFDYWGQGTTVTVSS
VL: EIVLTQSPATLSVTPGDRVSLSCRASQSISDFLHWYQQRSHESPRLLIKYASQSISGIPSRFGGSGSGSDFTLNINTVEPEDVGMYYCQSAHSFPYTFGGGTKLEIK
B11: 6A7-MMAE (conjugate)
VH: EVQLKESGAELVRPGASVKVSCKASGYSFTSYWMNWVKQRPGQGLEWIGMIHPSDSETKLNQKFRDRASLTVDKSSSTAYMQLSSPTSEDSAVYYCTINYESFYYAMDYWGQGTTVTVSS
VL: DIVMTQSPASLAVSLGQRATISCRASKSVSTSGYSYMHWYQQKPGQPPKLLLYLASNLESGVPARFSGSGSGADFTLNIHPVEEEDAATYYCLHSRELPYTFGGGTKLEIK

Key:
HCT116 [1] = test: In vitro killing by chimeric antibody-vc-MMAE conjugate (CellTiter-Glo, 120 h); format: cell-based
Procedure: (§1) The specific steps were: Colorectal cancer cells HCT116, breast cancer cells MDA-MB-231, prostate cancer cells PC3, MCF7 cells were respectively counted, adjusted to 3000 cells/well, and plated onto 96-well plates overnight; Conjugates were added at a final concentration of 8 nM to 0.000512 nM (a 5-fold dilution across 7 concentration points), totaling 200 µL, cultured at 37 °C in a CO2 incubator for 120 h, half of the medium (100 µL) was discarded, and 100 µL of CellTiter-Glo Luminescent Cell Viability assay reagent (Promega, cat # G7570) was added to detect signal values on a BMG microplate reader. The inhibition activity of antibody on tumor cell growth was calculated by graphpad fitting based on the signal value and antibody concentration, and the results are shown in FIG. 5 and Table 15. Table 15 IC50 value of anti-CDCP1 chimeric antibody -vcMMAE conjugate on tumor cells

MCF7 [2] = test: as above; format: cell-based; details: MCF7 (120 h), cells that do not express CDCP1
Procedure: as §1

MDA-MB-231 = test: as above; format: cell-based; details: MDA-MB-231 (120 h)
Procedure: as §1

PC3 = test: as above; format: cell-based; details: PC3 (120 h)
Procedure: as §1, with “[…],” for “cultured at 37 °C in a CO2 incubator for 120 h,”

HCC1806 = test: In vitro killing by humanized antibody-vc-MMAE conjugate (CellTiter-Glo, 120 h); format: cell-based
Procedure: (§2) The colorectal cancer cells HCT116 and breast cancer cells HCC1806 were counted separately, adjusted to 3000 cells/well and plated in 96-well plates overnight. Conjugates were added at a final concentration of 200 nM to 0.000512 nM (a 5-fold dilution across 9 concentration points), totaling 200 µL, cultured at 37°C in a CO2 incubator for 120 h, half of the medium (100 µL) was discarded, and 100 µL of CellTiter-Glo Luminescent Cell Viability assay reagent (Promega, cat # G7570) was added to detect signal values on a BMG microplate reader. The inhibition activity of antibody on tumor cell growth was calculated by graphpad fitting based on the signal value and antibody concentration, and the results are shown in FIGS. 6a and 6b and Tables 19 and 20. Table 19 DAR value of anti-CDCP1 humanized antibody-vc-MMAE conjugate and its IC50 value for HCC1806

HCT116 [3] = test: as above; format: cell-based
Procedure: as §2

HuCDCP1-C (human) = HuCDCP1-C (human) (UniProt Q9H5V8); test: ELISA, HuCDCP1-C coated 2 ug/ml
[4] = Drug : antibody ratio (DAR) of antibody-vc-MMAE conjugates by hydrophobic HPLC; details: for DAR: chimeric antibody-vc-MMAE conjugates; for DAR2 (%): share of DAR2 species; for DAR4 (%): share of DAR4 species; for DAR6 (%): share of DAR6 species; for DAR8 (%): share of DAR8 species
Procedure: The specific operation was to reduce each antibody and the control antibody CD27H10 (27H10 antibody in WO2018112334A1) with a 2-fold molar amount of […] (TECP) at 4 °C for 1 hour. A 7-fold molar amount of vcMMAE was then added for ligation at 4-25 °C for 1 h, and then the reaction mixture was dialyzed against 1 × PBS pH 8.0 and filtered for sterilization. Drug : antibody ratio (DAR) was detected by hydrophobic kurtosis with HLPC, and the molecular coupling results are shown in Table 14. Table 14 DAR values of antibody-drug conjugates
The humanized antibodies 1CP-125, 1CP-117 and 1CP-152 were subjected to linking to form ADC, and the linking process was the same as in example 18. Table 18 DAR values of antibody-drug conjugates

MCF7 [5] = test: In vitro killing by chimeric antibody-vc-MMAE conjugate (CellTiter-Glo, 120 h); format: cell-based; details: MCF7 (120 h), cells that do not express CDCP1; remark: listed apart in the source
Procedure: The inhibition activity of antibody on tumor cell growth was calculated by graphpad fitting based on the signal value and antibody concentration, and the results are shown in FIG. 5 and Table 15. Table 15 IC50 value of anti-CDCP1 chimeric antibody -vcMMAE conjugate on tumor cells

HuCDCP1-B (human) = target: T1, HuCDCP1-B (human); test: ELISA, HuCDCP1-B coated 2 ug/ml

Molecule	ELISA (HuCDCP1-C (human)) [nM]	DAR [4]	DAR2 (%) [4] [%]	DAR4 (%) [4] [%]	DAR6 (%) [4] [%]	DAR8 (%) [4] [%]	other results
CC[C@H](C)[C@@H]([C@@H](CC(=O)N1CCC[C@H]1[C@H](OC)[C@@H](C)C(=O)N[C@H](C)[C@@H](O)c1ccccc1)OC)N(C)C(=O)[C@@H](NC(=O)[C@@H](NC)C(C)C)C(C)C [MMAE] (H-[NMeV]V[Dil][Dolaproine]-X1)							IC50 (HCT116 [1]): 0.108 nM; IC50 (MCF7 [2]): 0.0777 nM; IC50 (MDA-MB-231): 0.168 nM; IC50 (PC3): 0.00101 nM; IC50 (HCC1806): 0.053 nM; IC50 (HCT116 [3]): 0.283 nM
B1	0.071						
B2	0.034						
B3		3.6	32.59	35.66	12.02	10.04	IC50 (MCF7 [5]): > 200 nM
B4	0.092						
B5		3.5	34.10	39.38	10.24	8.00	
B6	0.413						ELISA (HuCDCP1-B (human)): 0.208 nM
B7		3.48	33.89	28.50	8.28	9.09	
B8		3.2	29.966	37.81	7.324	1.741	
B9	0.027						
B10		3.65	32.01	37.12	11.15		IC50 (MCF7 [5]): ~200 nM
B11		3.6	24.99	38.25	12.28	5.30	
